One molecule from paper PMC6224402, “PIM2-mediated phosphorylation of hexokinase 2 is critical for tumor growth and paclitaxel resistance in breast cancer” (Oncogene, 2018) can be followed below.

The target of the assay is T1, GST-tagged HK2 (human, UniProt P52789 1-917).
T1 construct: Hexokinase 2 (HK2), human cDNA cloned into pGEX-4T-1; also called GST-HK2; source: E. coli BL21 (DE3), purified
T1 sequence (looked up): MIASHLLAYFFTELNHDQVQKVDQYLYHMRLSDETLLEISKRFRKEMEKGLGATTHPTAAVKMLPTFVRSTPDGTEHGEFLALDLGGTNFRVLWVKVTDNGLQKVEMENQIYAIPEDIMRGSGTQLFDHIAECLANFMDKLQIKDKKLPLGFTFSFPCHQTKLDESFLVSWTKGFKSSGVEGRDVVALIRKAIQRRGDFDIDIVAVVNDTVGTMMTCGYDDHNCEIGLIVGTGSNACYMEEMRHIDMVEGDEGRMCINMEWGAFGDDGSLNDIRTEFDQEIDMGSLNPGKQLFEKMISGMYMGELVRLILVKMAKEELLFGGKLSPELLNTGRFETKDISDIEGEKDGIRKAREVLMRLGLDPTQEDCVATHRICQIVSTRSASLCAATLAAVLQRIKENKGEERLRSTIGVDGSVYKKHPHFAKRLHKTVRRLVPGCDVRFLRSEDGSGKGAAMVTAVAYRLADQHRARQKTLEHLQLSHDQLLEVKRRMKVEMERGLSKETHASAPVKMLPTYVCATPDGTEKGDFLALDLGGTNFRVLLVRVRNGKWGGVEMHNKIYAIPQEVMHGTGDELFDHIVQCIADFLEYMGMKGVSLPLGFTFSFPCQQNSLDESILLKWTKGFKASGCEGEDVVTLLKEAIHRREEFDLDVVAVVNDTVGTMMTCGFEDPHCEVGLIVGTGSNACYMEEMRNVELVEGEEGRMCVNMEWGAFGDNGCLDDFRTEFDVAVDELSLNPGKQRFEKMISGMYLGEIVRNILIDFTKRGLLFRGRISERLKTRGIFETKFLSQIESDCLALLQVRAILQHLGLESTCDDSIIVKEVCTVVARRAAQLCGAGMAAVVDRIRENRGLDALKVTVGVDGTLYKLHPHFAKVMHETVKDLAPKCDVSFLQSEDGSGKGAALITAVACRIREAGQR
Description: pull-down; purified GST-tagged HK2 or GST mixed with His-PIM2; GST-binding resin, more than 8 h, five washes with lysis buffer. The conditions noted are these: both partners purified.

B1: His-tagged PIM2 (enzyme)
chain: not shown
notes: Serine/threonine kinase PIM2, human cDNA cloned into pet28a; also called His-PIM2; source: E. coli BL21 (DE3), purified
On to B1, for which the binding result is recorded as “binds”.
